One block for each binder: values may come before it.
Tests used:
Assay in all cases: two-hybrid library CCNG1;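 also: natural log of median RNA to DNA barcode read ratio; higher means stronger binding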
4H3858-bN = target: T1, 4H3858-bN
T1 chain: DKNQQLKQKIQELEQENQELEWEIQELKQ

4H3298-bN = target: T2, 4H3298-bN
T2 chain: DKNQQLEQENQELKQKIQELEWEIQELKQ

4H850-bN = target: T3, 4H850-bN
T3 chain: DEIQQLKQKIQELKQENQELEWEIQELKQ

4H3277-bN = target: T4, 4H3277-bN
T4 chain: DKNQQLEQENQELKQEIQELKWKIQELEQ

4H3175-bN = target: T5, 4H3175-bN
T5 chain: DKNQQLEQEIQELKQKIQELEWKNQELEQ

4H1985-bN = target: T6, 4H1985-bN
T6 chain: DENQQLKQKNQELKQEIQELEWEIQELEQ

4H3162-bN = target: T7, 4H3162-bN
T7 chain: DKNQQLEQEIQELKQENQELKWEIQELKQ

4H906-bN = target: T8, 4H906-bN
T8 chain: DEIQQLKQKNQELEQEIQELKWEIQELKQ

4H570-bN = target: T9, 4H570-bN
T9 chain: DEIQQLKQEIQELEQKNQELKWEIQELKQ

4H3462-bN = target: T10, 4H3462-bN
T10 chain: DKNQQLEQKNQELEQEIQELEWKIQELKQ

4H1348-bN = target: T11, 4H1348-bN
T11 chain: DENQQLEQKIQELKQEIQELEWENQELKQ

4H3613-bN = target: T12, 4H3613-bN
T12 chain: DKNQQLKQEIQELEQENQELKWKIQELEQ

P6bH1 = target: T13, P6bH1
T13 chain: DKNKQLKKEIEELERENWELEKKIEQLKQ

4H1373-bN = target: T14, 4H1373-bN
T14 chain: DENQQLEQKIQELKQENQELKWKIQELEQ

4H1544-bN = target: T15, 4H1544-bN
T15 chain: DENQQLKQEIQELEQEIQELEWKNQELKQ

4H1710-bN = target: T16, 4H1710-bN
T16 chain: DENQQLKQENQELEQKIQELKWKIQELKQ

4H1449-bN = target: T17, 4H1449-bN
T17 chain: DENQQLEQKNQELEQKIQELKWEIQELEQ

4H3497-bN = target: T18, 4H3497-bN
T18 chain: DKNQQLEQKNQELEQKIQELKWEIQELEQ

4H3974-bN = target: T19, 4H3974-bN
T19 chain: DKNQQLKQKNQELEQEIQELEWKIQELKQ

4H3817-bN = target: T20, 4H3817-bN
T20 chain: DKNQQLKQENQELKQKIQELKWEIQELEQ

4H1899-bN = target: T21, 4H1899-bN
T21 chain: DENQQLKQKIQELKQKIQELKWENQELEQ

4H3628-bN = target: T22, 4H3628-bN
T22 chain: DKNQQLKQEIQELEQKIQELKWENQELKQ

4H626-bN = target: T23, 4H626-bN
T23 chain: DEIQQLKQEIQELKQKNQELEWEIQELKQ

4H591-bN = target: T24, 4H591-bN
T24 chain: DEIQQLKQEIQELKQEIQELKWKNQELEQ

4H3926-bN = target: T25, 4H3926-bN
T25 chain: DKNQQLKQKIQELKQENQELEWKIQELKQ

4H850-bA = target: T26, 4H850-bA
T26 chain: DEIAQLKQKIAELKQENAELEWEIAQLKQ

4H906-bA = target: T27, 4H906-bA
T27 chain: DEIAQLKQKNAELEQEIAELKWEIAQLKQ

O11 = target: T28, O11
T28 chain: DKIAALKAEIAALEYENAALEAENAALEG

4H953-bN = target: T29, 4H953-bN
T29 chain: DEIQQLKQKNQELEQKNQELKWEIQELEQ

4H619-bA = target: T30, 4H619-bA
T30 chain: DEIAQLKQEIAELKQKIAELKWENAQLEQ

4H584-bA = target: T31, 4H584-bA
T31 chain: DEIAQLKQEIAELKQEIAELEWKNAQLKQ

4H570-bA = target: T32, 4H570-bA
T32 chain: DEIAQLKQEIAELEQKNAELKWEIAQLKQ

4H3364-bA = target: T33, 4H3364-bA
T33 chain: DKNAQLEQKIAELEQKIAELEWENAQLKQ

4H3041-bA = target: T34, 4H3041-bA
T34 chain: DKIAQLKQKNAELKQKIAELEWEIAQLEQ

P5SH = target: T35, P5SH
T35 chain: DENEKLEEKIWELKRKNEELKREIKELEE

4H264-bA = target: T36, 4H264-bA
T36 chain: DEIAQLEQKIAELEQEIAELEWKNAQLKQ

4H349-bA = target: T37, 4H349-bA
T37 chain: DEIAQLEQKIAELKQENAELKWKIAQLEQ

4H3427-bA = target: T38, 4H3427-bA
T38 chain: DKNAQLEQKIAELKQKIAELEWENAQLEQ

4H3297-bA = target: T39, 4H3297-bA
T39 chain: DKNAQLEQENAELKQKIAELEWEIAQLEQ

4H2859-bA = target: T40, 4H2859-bA
T40 chain: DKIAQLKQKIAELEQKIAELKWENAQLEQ

4H2760-bA = target: T41, 4H2760-bA
T41 chain: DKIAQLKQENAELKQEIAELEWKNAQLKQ

4H932-bA = target: T42, 4H932-bA
T42 chain: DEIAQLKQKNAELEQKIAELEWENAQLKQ

4H3381-bA = target: T43, 4H3381-bA
T43 chain: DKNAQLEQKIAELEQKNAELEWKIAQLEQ

4H730-bA = target: T44, 4H730-bA
T44 chain: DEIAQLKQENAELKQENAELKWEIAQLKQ

O8-bS = target: T45, O8-bS
T45 chain: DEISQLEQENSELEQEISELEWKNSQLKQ

4H2931-bA = target: T46, 4H2931-bA
T46 chain: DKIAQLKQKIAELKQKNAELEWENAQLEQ

4H56-bA = target: T47, 4H56-bA
T47 chain: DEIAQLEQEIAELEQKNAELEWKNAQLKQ

4H796-bA = target: T48, 4H796-bA
T48 chain: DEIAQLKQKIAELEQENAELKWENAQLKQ

4H949-bA = target: T49, 4H949-bA
T49 chain: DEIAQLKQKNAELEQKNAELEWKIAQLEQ

O2 = target: T50, O2
T50 chain: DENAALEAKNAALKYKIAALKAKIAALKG

O14 = target: T51, O14
T51 chain: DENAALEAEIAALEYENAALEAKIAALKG

O12 = target: T52, O12
T52 chain: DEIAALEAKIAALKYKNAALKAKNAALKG

O5 = target: T53, O5
T53 chain: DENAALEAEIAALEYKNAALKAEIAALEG

O9 = target: T54, O9
T54 chain: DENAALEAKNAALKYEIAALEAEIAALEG

O16 = target: T55, O16
T55 chain: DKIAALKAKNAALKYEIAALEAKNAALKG

O15 = target: T56, O15
T56 chain: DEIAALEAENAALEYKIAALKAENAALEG

O8 = target: T57, O8
T57 chain: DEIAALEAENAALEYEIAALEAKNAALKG

O3 = target: T58, O3
T58 chain: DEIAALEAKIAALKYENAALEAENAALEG

O4 = target: T59, O4
T59 chain: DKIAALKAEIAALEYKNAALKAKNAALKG

O13 = target: T60, O13
T60 chain: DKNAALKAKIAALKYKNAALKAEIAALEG

P3A-bS = target: T61, P3A-bS
T61 chain: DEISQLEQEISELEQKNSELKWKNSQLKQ

O7 = target: T62, O7
T62 chain: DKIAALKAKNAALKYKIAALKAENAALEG

O6 = target: T63, O6
T63 chain: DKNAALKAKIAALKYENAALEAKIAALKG

interaction score (4H3858-bN): -0.748 | interaction score (4H3298-bN): 0.08 | interaction score (4H850-bN): 0.761 | interaction score (4H3277-bN): -0.122 | interaction score (4H3175-bN): -0.302 | interaction score (4H1985-bN): -0.781 | interaction score (4H3162-bN): -0.0481 | interaction score (4H906-bN): -0.116 | interaction score (4H570-bN): 0.123 | interaction score (4H3462-bN): -0.171 | interaction score (4H1348-bN): -1.55 | interaction score (4H3613-bN): -0.0173 | interaction score (P6bH1): -0.556 | interaction score (4H1373-bN): -0.955 | interaction score (4H1544-bN): -1.46 | interaction score (4H1710-bN): -1.09 | interaction score (4H1449-bN): -0.5 | interaction score (4H3497-bN): -0.431 | interaction score (4H3974-bN): 0.224 | interaction score (4H3817-bN): -0.958 | interaction score (4H1899-bN): -0.707 | interaction score (4H3628-bN): -0.12 | interaction score (4H626-bN): -0.135 | interaction score (4H591-bN): -1.4 | interaction score (4H3926-bN): -0.478
B1: 4H1348-bN (peptide)
chain: DENQQLEQKIQELKQEIQELEWENQELKQ

interaction score (4H850-bA): 1.98 | interaction score (4H906-bA): 0.277 | interaction score (O11): -0.882 | interaction score (4H953-bN): -0.0403 | interaction score (4H619-bA): -1.3 | interaction score (4H584-bA): -1.33 | interaction score (4H570-bA): -0.223
B2: 4H570-bA (peptide)
chain: DEIAQLKQEIAELEQKNAELKWEIAQLKQ

interaction score (4H3364-bA): 0.942 | interaction score (4H3041-bA): 2.21 | interaction score (P5SH): 1.79 | interaction score (4H264-bA): 1.38 | interaction score (4H349-bA): -0.396 | interaction score (4H3427-bA): 1.19 | interaction score (4H3297-bA): 0.896 | interaction score (4H2859-bA): 1.6 | interaction score (4H2760-bA): -0.475 | interaction score (4H932-bA): -0.419 | interaction score (4H3381-bA): 0.311 | interaction score (4H730-bA): -1.63 | interaction score (O8-bS): -1.91 | interaction score (4H2931-bA): 2.07 | interaction score (4H56-bA): -0.504 | interaction score (4H796-bA): -0.521 | interaction score (4H949-bA): -0.323
B3: 4H264-bA (peptide)
chain: DEIAQLEQKIAELEQEIAELEWKNAQLKQ

interaction score (O2): -2.18 | interaction score (O14): -2.48 | interaction score (O12): 2 | interaction score (O5): -2.06 | interaction score (O9): -2.14 | interaction score (O16): -2.6 | interaction score (O15): -2.22 | interaction score (O8): -2.51 | interaction score (O11): -2.47 | interaction score (O3): -1.74 | interaction score (O4): 1.77 | interaction score (O13): -1.9 | interaction score (P3A-bS): 0.868 | interaction score (O7): -1.85 | interaction score (O6): -2.37
B4: O11 (peptide)
chain: DKIAALKAEIAALEYENAALEAENAALEG
